From publication PMC11840923, “Kinetic and Thermodynamic Characterization of Human 4-Oxo-L-proline Reductase Catalysis” (Biochemistry, 2025)

Substrate: O=C1CN[C@H](C(=O)O)C1
Assay: purified protein
Assay type: biochemical, Homo sapiens
Conditions: NADH binds the HsBDH2:NADH complex; receives the pro-S hydrogen from NADH

B1: 4-oxo-L-proline reductase (HsBDH2) (Homo sapiens) (protein)
chain: MGRLDGKVIILTAAAQGIGQAAALAFAREGAKVIATDINESKLQELEKYPGIQTRVLDVTKKKQIDQFANEVERLDVLFNVAGFVHHGTVLDCEEKDWDFSMNLNVRSMYLMIKAFLPKMLAQKSGNIINMSSVASSVKGVVNRCVYSTTKAAVIGLTKSVAADFIQQGIRCNCVCPGTVDTPSLQERIQARGNPEEARNDFLKRQKTGRFATAEEIAMLCVYLASDESAYVTGNPVIIDGGWSL
B1 showed a Km of 176 µM.
